Test results: IntAct's records for PubMed 18060821

B1: MAPK phosphothreonine lyase (Salmonella enteritidis), P0A2N1 (parent)
chain: MPINRPNLNLNIPPLNIVAAYDGAEIPSTNKHLKNNFNSLHNQMRKMPVSHFKEALDVPDYSGMRQSGFFAMSQGFQLNNHGYDVFIHARRESPQSQGKFAGDKFHISVLRDMVPQAFQALSGLLFSEDSPVDKWKVTDMEKVVQQARVSLGAQFTLYIKPDQENSQYSASFLHKTRQFIECLESRLSENGVISGQCPESDVHPENWKYLSYRNELRSGRDGGEMQRQALREEPFYRLMTE

Variants of: B1
Details: with mk07_human MAPK7, Q13164
Sequence of mk07_human MAPK7, Q13164 (Q13164 whole entry, looked up): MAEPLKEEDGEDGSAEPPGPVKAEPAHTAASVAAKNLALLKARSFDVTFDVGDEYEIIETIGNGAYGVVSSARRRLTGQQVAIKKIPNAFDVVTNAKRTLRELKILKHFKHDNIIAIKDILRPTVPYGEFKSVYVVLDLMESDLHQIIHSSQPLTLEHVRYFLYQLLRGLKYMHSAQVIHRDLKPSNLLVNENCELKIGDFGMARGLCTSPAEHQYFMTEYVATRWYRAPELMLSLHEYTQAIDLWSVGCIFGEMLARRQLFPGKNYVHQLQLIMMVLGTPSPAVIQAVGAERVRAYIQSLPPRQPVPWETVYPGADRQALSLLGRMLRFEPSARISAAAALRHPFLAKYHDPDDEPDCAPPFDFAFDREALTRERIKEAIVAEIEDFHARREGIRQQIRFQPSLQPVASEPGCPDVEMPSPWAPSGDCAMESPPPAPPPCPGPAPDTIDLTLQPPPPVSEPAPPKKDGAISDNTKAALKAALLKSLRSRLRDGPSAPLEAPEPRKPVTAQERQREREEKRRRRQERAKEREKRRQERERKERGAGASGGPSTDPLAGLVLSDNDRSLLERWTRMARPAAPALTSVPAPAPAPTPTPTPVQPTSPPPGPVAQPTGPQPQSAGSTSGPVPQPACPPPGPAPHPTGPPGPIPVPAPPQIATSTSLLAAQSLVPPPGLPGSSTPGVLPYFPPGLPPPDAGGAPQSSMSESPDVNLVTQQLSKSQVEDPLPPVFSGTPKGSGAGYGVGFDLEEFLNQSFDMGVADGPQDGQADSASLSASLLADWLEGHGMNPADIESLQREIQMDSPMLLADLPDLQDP

Variant | effect of a mutation on the interaction
K136A | with no effect

Variants of: B1
Details: with mk07_human MAPK7, Q13164
Remark: another data set of the same source

Variant | effect of a mutation on the interaction
K136A | causing an interaction
H106A;K136A | disrupting interaction
